Here are results for two molecules from patent US20240352438A1, “MEANS AND METHODS FOR DETOXIFYING OCHRATOXIN A” (DSM Austria GmbH, priority 2021, published 2024).

A short description of assay [1]: Feeding trial in pigs: OTA concentration in plasma and urine. It is filed as in vivo. To be noted: for % OTA reduction, plasma samples / % OTA reduction, urine samples: day 14. On the procedure:
To further study an application of the enzymes referred to herein as additives e.g. for feed or food, feeding trials were conducted in pigs. Exemplarily, either of the enzymes having either the amino acid sequence of SEQ ID NO: 1 or 2 were produced by cultivation of E. coli transformants in bioreactors by applying methods known to a person having skill in the art. The cell broth was homogenized and centrifuged. The supernatant was concentrated, dried by lyophilization and formulated as a powder by grinding. The enzymatic activity of the thus obtained lyophilized powder was determined, and the powder was mixed with feed for the feeding trial as described in the following.
Thirteen piglet groups were studied based on the following experimental diet setups: 1) Base feed; 2) base feed+50 ppb OTA; 3) base feed+50 ppb OTA+2.62 U of the enzyme of SEQ ID NO: 1 per kg of feed; 4) base feed+50 ppb OTA+0.29 U of the enzyme of SEQ ID NO: 2 per kg of feed; 5) base feed+500 ppb OTA; 6) base feed+500 ppb OTA+2.62 U of the enzyme of SEQ ID NO: 1 per kg of feed; 7) 500 ppb OTA+0.29 U of the enzyme of SEQ ID NO: 2 per kg of feed.
Each trial group consisted of four piglets weighing approximately 7-8 kg, who were coming out from weaning and adapted to solid diet before being fed the experimental diet as described above. The duration of the feeding trial (i.e. actual days of feeding the experimental diet) was fourteen days. Collectively each trial group consumed around 15 kg of feed. No piglets fell sick to any unexpected disease throughout the feeding trial. Urine and blood samples were collected on day 0, just before starting the experimental diet, and on day 14.
Extraction of OTA was performed from plasma and urine samples for subsequent analysis by HPLC-MS. 200 μL of sample was thoroughly mixed with 800 μL of extraction solution (containing 99% of ethyl acetate and 1% of phosphoric acid, 85%) followed by centrifugation at 19000×g for 5 min for phase separation. 50 μL of upper phase was diluted with 50 μL of acetonitrile, followed by HPLC-MS analysis. The HPLC-MS method as described by Dellafiora et al. (2020, Toxins 12, 258) was used to determine the changes in OTA concentration in the samples taken during the trial upon consumption of the experimental diets. The results are shown in Table 18 using the diet setup numbering as indicated above.

The nature of assay [2]: Pelleting trial: degradation of spiked OTA to OTalpha in mash feed and resuspended pellets. To be noted: for OTalpha %: formed OTalpha; for OTA %: remaining OTA. On the procedure: To verify the suitability of the enzymes referred to herein as additives e.g. for feed or food, pelleting trials were conducted. As an example, 1.15 U or 0.06 U of either of the enzymes having either the amino acid sequence of SEQ ID NO: 1 or 2 was homogeneously mixed with one kg of mash feed and subjected to standard feed pelleting process where the temperature of the conditioner was set to either 75, 80, 85, 90 or 95° C. in five separate batches of feed pelleting. The effect of pelleting process on the stability of enzyme was estimated by calculation of percentage degradation of spiked OTA to OTalpha in resuspended pellets. Untreated mash was analyzed applying the following protocol: 50 μL of 10 ppm OTA were spiked to g of dry sample, directly before starting the assay by adding 4.95 mL RO-water (37° C.). The suspension was incubated in 50 mL tubes in an overhead shaker at 37° C. for 60 min. The reaction was stopped by adding 1 mL 6 M phosphoric acid followed by another incubation in a rotary shaker at room temperature for 10 min. Subsequently 30 μL of ^13C-labeled OTA/^13C-labeled OTalpha (each 1 ppm) internal standard were added to each sample and mixed. 30 mL ethyl acetate were added followed by shaking for 60 min at 80 rpm on an overhead shaker. After centrifugation (10 min, 3214 rcf), 8 mL of the organic upper phase were transferred to a new 50 mL tube. 4 mL of 0.1 M NaHCO3 (pH 8.2) were added. After shaking for 1 min at 80 rpm on an overhead shaker, sample was centrifuged again (10 min, 3214 rcf) and 3 mL of the aqueous lower phase transferred to a new 15 mL tube. 70 μL 85% phosphoric acid and 1.5 mL ethyl acetate were added and shaken for 1 min at 80 rpm at an overhead shaker. After centrifugation (10 min, 3214 rcf) 50 μL organic upper phase were added to 50 μL acetonitrile in a silanized HPLC vial and thoroughly mixed. OTA and OTalpha content was determined by HPLC MS/MS method as described by Dellafiora et al. (2020, Toxins 12, 258) to determine the percentage of OTA degradation to form OTalpha.

[3] abbreviates: 500 ppb OTA+enzyme (2.62 U SEQ ID NO: 1 or 0.29 U SEQ ID NO: 2 per kg of feed).
Setting [4] is: base feed+50 ppb OTA+enzyme (2.62 U SEQ ID NO: 1 or 0.29 U SEQ ID NO: 2 per kg of feed).
The mark [5] stands for this setting: mash before pelleting, 1.15 U or 0.06 U enzyme per kg mash feed, 37° C., 60 min.

B1: SEQ ID NO: 1: mature species of exemplary OTA-hydrolyzing polypeptide 1, amidohydrolase family; lacks N-terminal amino acids 1-24 of SEQ ID NO: 318 (protein)
chain: APAAPHTVVLRAARMFDGASGKLVDHPQLTIVGNKIVRIAQGDKAEVPAGAEVVDLGDATLLPGFIDAHVHLSGQSSDNWYGDFFDNMMRFPAEQALYGAYYARITLEAGFTSVRDVGSTDWVALGLRNAIDAGKVPGPRMLVSNYAVGSTGGHADQDPIPPHKLPLAGPLQGVCNGPEECRAAVRYQIKYGANVIKFMPSGGVLSLSDPVDAPELSQDEMNAVIGESHAWGRKVAAHAHGDKAAKMAVAAGVDSIEHGSFIEDDTLRAMKAKNVYLVPTISAIAHVEEKIGTFPPVIAEKGRAAAAHLRQTFRHAVQIGVPIALGTDAGVGAHGSNAREFRYMVENGLTPAQALLAGTANAARLLGTFDRVGTLEAGKLADVVAVPGNPIADITVTERPLFVMKDGVVVRRDAVR
modifications: polypeptide 1
As to B1, the “OTA concentration in plasma samples, Day 14” value in assay [1] (setting [3]) is on record as 168 ± 41 ppb; in assay [1] (setting [4]), 19 ± 2 ppb. Also, the “OTA concentration in urine samples, Day 14” value came out at 7 ± 1 ppb in assay [1] (setting [3]) and 0 ppb in assay [1] (setting [4]). The “% OTA reduction, plasma samples” value is 59% in assay [1] (setting [3]) and 54% in assay [1] (setting [4]). Besides, the “% OTA reduction, urine samples” value in assay [1] (setting [3]) is 65%; in assay [1] (setting [4]), 100%. Moreover, the OTalpha % in assay [2] (after pelleting at 75° C.), in assay [2] (after pelleting at 80° C.), in assay [2] (after pelleting at 85° C.), in assay [2] (after pelleting at 90° C.), in assay [2] (after pelleting at 95° C.) and in assay [2] (setting [5]) was 99% in each case. Further, the OTA % in assay [2] (after pelleting at 75° C.), in assay [2] (after pelleting at 80° C.), in assay [2] (after pelleting at 85° C.), in assay [2] (after pelleting at 90° C.), in assay [2] (after pelleting at 95° C.) and in assay [2] (setting [5]) was 1% in each case.

B2: SEQ ID NO: 2: exemplary OTA-hydrolyzing polypeptide 2 belonging to the amidohydrolase protein family (protein)
chain: MYSLAIRNGIVFDGEKFIGKTNIYVDGDKIVKITNERLDAKEEVNAEGYFVMPGLIDAHLHLTGIRGGSLLMGYLLDDPRTRLLRAANWARELLMAGFTTVRDCGEPNSIILRNAINEGIIPGPRIIAAGSPITQTFGHAELSHSLPLEWSIQLGFGEICDGVDECIKAARKVLRSGADFIKIMATGGVLSERDRPEWPQLTPEEMSAIVREAEKVGTYVAAHAHGDKGARIAVEAGVRTIEHGSLITEETVKLMAEKGVSLTPTLSIQELIYKYGKQMGIDPWGLEKIGQVREGVINSIKLARKYGVMILAGTDLGFKTGLDIDMGKNWVEVKLLVELGGLSSEEALRAATGNASKMLRLNTGIIREGYLADIVLINGNPLENINDIARVSTVIKGGKVTVENGKLI
modifications: polypeptide 2
notes: exemplary OTA-hydrolyzing polypeptide 2 belonging to the amidohydrolase protein family
For B2, the “OTA concentration in plasma samples, Day 14” value in assay [1] (setting [3]) amounted to 107 ± 31 ppb; in assay [1] (setting [4]), 11 ± 3 ppb. Further, the results for the “OTA concentration in urine samples, Day 14” value in assay [1] (setting [3]) and in assay [1] (setting [4]) were 4 ppb and 0 ppb, respectively. Besides, the “% OTA reduction, plasma samples” value in assay [1] (setting [3]) was found to be 74%; in assay [1] (setting [4]), 73%. Also, the “% OTA reduction, urine samples” value in assay [1] (setting [3]) is listed as 80%; in assay [1] (setting [4]) it was 100%. Moreover, the OTalpha % is listed as 84% in assay [2] (after pelleting at 75° C.); 88% in assay [2] (after pelleting at 80° C.); 84% in assay [2] (after pelleting at 85° C.); 88% in assay [2] (after pelleting at 90° C.); 87% in assay [2] (after pelleting at 95° C.); 80% in assay [2] (setting [5]). Besides, the OTA % in assay [2] (after pelleting at 75° C.) is recorded as 16%; in assay [2] (after pelleting at 80° C.) it was 12%; in assay [2] (after pelleting at 85° C.), 16%; in assay [2] (after pelleting at 90° C.), 12%; in assay [2] (after pelleting at 95° C.), 13%; in assay [2] (setting [5]), 20%.
